Results on 24 molecules are retold here after patent US20240010720A1 (IOMX THERAPEUTICS, published 2024).

In one test the target is T1, Streptavidin (UniProt P22629 37-163, limits assumed).
T1 construct: also called negative antigen; irrelevant antigen
In words: ELISA, scFv.

The target in test [1] is T2, His-tagged extracellular domain (ECD) of human IGSF11 (VSIG3) (human, UniProt Q5DX21 23-241).
T2 construct: partly bought (SinoBiological 13094-H08H); also called IGSF11-HIS; HIS-IGSF11; not shown: HIS6 tag
T2 sequence: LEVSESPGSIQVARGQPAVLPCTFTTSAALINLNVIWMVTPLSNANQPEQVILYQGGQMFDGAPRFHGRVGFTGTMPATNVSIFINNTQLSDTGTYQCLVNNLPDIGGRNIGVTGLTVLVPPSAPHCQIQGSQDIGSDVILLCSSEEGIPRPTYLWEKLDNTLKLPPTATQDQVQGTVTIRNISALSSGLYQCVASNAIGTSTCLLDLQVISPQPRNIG
Nature of the test: ELISA EC50 grade, IgG1.

Test [2] concerns the target T3, IGSF11 ECD fused to murine-Fc (human; mouse, UniProt Q5DX21 23-241).
T3 construct: also called Fc-fusion IGSF11 ECD; full-length ECD of IGSF11; not shown: murine Fc
T3 sequence: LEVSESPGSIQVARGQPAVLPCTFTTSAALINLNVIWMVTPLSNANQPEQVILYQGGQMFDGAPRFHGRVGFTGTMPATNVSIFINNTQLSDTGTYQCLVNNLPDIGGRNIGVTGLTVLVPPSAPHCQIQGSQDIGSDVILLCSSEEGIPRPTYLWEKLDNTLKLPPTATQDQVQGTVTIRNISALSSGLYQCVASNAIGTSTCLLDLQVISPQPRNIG
Nature of the test: ELISA, IgG.

T1 sequence (P22629 37-163 limits assumed): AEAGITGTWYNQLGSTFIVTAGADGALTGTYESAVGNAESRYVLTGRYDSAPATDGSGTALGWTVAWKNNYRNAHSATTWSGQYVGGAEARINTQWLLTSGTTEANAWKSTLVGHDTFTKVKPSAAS

B1: A-034 (scFv format) (scFv, V domains shown)
VH: QMQLVQSGGGLVKPGGSLRLSCAASGFTFSSYTMNWVRQAPGKGLEWVSSISSIGTYIYYADSVKGRFTISRDNAKNSLYLQMNSLRAEDTAVYYCARVLLSGSYYGYFDSWGQGTLVTVSS
VL: QSVLTQPPSVSGAPGQRVTISCTGSSSNIGAGYDVHWYQQLPGTAPKLFIYGNSNRPSGVPDRFSGSKSGTSASLAITGLQAEDEADYYCQSYDSSLSGYVFGTGTKVTVL
notes: scFv
As to B1, the binding result with Streptavidin is “no binding (tested: <0.025 or <0.05 RFU)”.

B2: A-029 (IgG1 format) (antibody, V domains shown)
VH: QVQLVQSGAEVKKPGSSVKVSCKASGGTFSSYAISWVRQAPGQGLEWMGGIIPIFGTANYAQKFQGRVTITADESTGTAYMELSSLRSEDTAVYYCARSYYYYYGMDVWGQGTTVTVSS
VL: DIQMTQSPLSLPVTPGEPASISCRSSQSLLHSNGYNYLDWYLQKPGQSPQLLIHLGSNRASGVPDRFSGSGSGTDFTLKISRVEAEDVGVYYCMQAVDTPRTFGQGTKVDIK
notes: human IgG1 format
As to B2, in test [1], the EC50 lay within 0.05 to 1 nM.

B3: A-003 (IgG1 format) (antibody, V domains shown)
VH: VQLVQSGAEVKKPGSSVKVSCKASGGTFSSYAISWVRQAPGQGLEWMGGIIPIFGTANYAQKFQGRVTITADESTSTAYMELSSLRSEDTAVYYCASPRIQLWAAGGFDYWGQGTLVTVSS
VL: QSALTQPASVSGSPGQSITISCTGTSSDVGGYNLVSWYQQHPGKAPKLMIYDVSNRPSGVSNRFSGSKSGNTASLTISGLQAEDEADYYCSSFTTSTTLVFGGGTKLTVL
notes: human IgG1 format
B3: in test [1], the EC50 lay in the range of 0.05 to 1 nM.

B4: C-006 (IgG1 format) (antibody, V domains shown)
VH: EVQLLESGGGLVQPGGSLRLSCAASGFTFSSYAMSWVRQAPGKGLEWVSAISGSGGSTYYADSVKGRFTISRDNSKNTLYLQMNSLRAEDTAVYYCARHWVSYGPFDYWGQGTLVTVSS
VL: DIQMTQSPSSLSASVGDRVTITCRASQSISSYLNWYQQKPGKAPKLLIYAASSLQSGVPSRFSGSGSGTDFTLTISSLQPEDFATYYCQQSHQSPPITFGQGTKVEIK
notes: wildtype human IgG1 and kappa or lambda constant regions
Regarding B4, the EC50 in test [2] was in the range of 1 to 20 nM.

B5: A-025 (IgG1 format) (antibody, V domains shown)
VH: QVQLVQSGAEVKKPGSSVKVSCKASGGTFSSYAISWVRQAPGQGLEWMGGIIPIFGTANYAQKFQGRVTITADESTSTAYMELTSLRSEDTAVYYCARGGWLRQNWFDPWGQGTLVTVSS
VL: SSELTQDPAVSVALGQTVRITCQGDSLRSYYASWYQQKPGQAPVLVIYGKNNRPSGIPDRFSGSSSGNTASLTITGAQAEDEADYYCNSRDSSGNHPRVFGGGTKLTVL
notes: human IgG1 format
Molecule B5 registered an EC50 in test [1] of 0.05 to 1 nM.

B6: C-010 (IgG1 format) (antibody, V domains shown)
VH: QVQLVQSGAEVKKPGSSVKVSCKASGGTFSSYAISWVRQAPGQGLEWMGGIIPIFGTANYAQKFQGRVTITADESTSTAYMELSSLRSEDTAVYYCARGYGEYYPAFDVWGQGTLVTVSS
VL: SYELTQPPSVSVSPGQTASITCSGDKLGDKYASWYQQKPGQSPVLVIYQDSKRPSGIPERFSGSNSGNTATLTISGTQAEDEADYYCASYAHTHSTWVFGGGTKLTVL
notes: as for B4
The molecule B6 displayed an EC50 in test [2] of 20 to 100 nM.

B7: A-009 (IgG1 format) (antibody, V domains shown)
VH: QVQLVQSGAEVKKPGSSVKVSCKASGGTFSSYAISWVRQAPGQGLEWMGGIIPIFGTANYAQKFQGRVTITADESTSTAYMELSSLRSEDTAVYYCARGRGFGELYFDYWGQGTLVTVSS
VL: ETTLTQSPATLSVSPGERATLSCRASQGVRSNIAWYQQKPGQAPRLLIYDSSTRATGIPARFSGSGSGTEFTLTISSLQSEDFAVYSCQQYKNWPRTFGQGTKVEIK
notes: human IgG1 format
In test [1], B7 returned an EC50 of 0.05 to 1 nM.

B8: C-022 (IgG1 format) (antibody, V domains shown)
VH: EVQLLESGGGLVQPGGSLRLSCAASGFTFSSYAMSWVRQAPGKGLEWVSAISGSGGSTYYADSVKGRFTISRDNSKNTLYLQMNSLRAEDTAAYYCARMAAGASWGTFDYWSQGTLVTVSS
VL: DIQMTQSPSSLSASVGDRVTITCRASQSISSYLNWYQQKPGKAPKLLIYAASSLQSGVPSRFSGSGSGTDFTLTISSLQPEDFATYYCQQRSGSPLTFGQGTKVEIK
notes: as for B4
In test [2], B8 displayed an EC50 of 1 to 20 nM.

B9: A-016 (IgG1 format) (antibody, V domains shown)
VH: QVQLQESGAEVKKPGASVKVSCKASGYTFTGYYMHWVRQAPGQGLEWMGGIIPIFGTANYAQKFQGRVTITADESTSTAYMELSSLRSEDTAVYYCAGAGMELTRSGAYYYYGMDVWGQGTTVTVSS
VL: QSALTQPASVSGSPGQSITISCTGTSSDIGGYTFVSWYQQHPGKAPKVMIHDVNNRPSGISNRFSGSKSGNTASLTISGLQAEDEADYYCSSVTSTNTYVFGTGTKVTVL
notes: human IgG1 format
B9 came in with an EC50 in test [1] of less than 0.02 nM.

B10: A-001 (IgG1 format) (antibody, V domains shown)
VH: EVQLVESGGGLVKPGGSLRLSCAASGFTFSSYSMNWVRQAPGKGLEWVSSISSSSSYIYYADSVKGRFTISRDNAKNSLYLQMNSLRAEDTAVYYCVRSIIVQALGITSVFDIWGQGTMVTVSS
VL: AIRLTQSPSSLSASVGDRVTISCRASQIISNHLNWYQQKPGKAPKLLIYAASRLQTGVPSRFSGSGSETDYTLTISSLQPEDFATYYCQQSYSNPRTFGHGTKVEIK
notes: human IgG1 format
Turning to B10, the EC50 in test [1] is less than 0.02 nM.

B11: C-002 (IgG1 format) (antibody, V domains shown)
VH: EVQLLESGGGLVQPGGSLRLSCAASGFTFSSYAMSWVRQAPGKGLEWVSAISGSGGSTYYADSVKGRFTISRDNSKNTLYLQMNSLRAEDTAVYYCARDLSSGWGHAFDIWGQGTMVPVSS
VL: ASVLTQPPSVSAAPGQKVTISCSGSSSNIGNNYVSWYQQLPGTAPKLLIYDNNKRPSGIPDRFSGSKSGTSATLGITGLQAEDEADYYCLSYTTSEHHLVFGGGTKLTVL
notes: as for B4
As to B11, the EC50 in test [2] was in the range of 1 to 20 nM.

B12: C-026 (IgG1 format) (antibody, V domains shown)
VH: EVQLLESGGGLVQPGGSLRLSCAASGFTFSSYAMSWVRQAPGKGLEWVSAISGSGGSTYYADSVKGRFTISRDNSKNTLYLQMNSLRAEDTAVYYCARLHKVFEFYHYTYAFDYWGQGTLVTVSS
VL: ASVLTQPPSVSAAPGQKVTISCSGSSSNIGNNYVSWYQQLPGTAPKLLIYDNNKRPSGIPDRFSGSKSGTSATLGITGLQAEDEADYYCASYSSETSGWVFGGGTKLTVL
notes: as for B4
B12 yielded an EC50 in test [2] of 1 to 20 nM.

B13: C-013 (IgG1 format) (antibody, V domains shown)
VH: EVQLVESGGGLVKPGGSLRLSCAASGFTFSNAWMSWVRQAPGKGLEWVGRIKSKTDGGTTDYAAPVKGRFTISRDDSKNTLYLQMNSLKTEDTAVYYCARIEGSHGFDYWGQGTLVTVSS
VL: SYELTQPPSVSVSPGQTASITCSGDKLGDKYASWYQQKPGQSPVLVIYQDSKRPSGIPERFSGSNSGNTATLTISGTQAEDEADYYCASYLHTPKQFVFGGGTKLTVL
notes: as for B4
In test [2], B13 came in with an EC50 of 1 to 20 nM.

B14: C-018 (IgG1 format) (antibody, V domains shown)
VH: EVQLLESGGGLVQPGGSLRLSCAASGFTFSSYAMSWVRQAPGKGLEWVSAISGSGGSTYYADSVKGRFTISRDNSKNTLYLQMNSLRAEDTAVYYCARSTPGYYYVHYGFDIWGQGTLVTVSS
VL: SYELTQPPSVSVSPGQTASITCSGDKLGDKYASWYQQKPGQSPVLVIYQDSKRPSGIPERFSGSNSGNTATLTISGTQAEDEADYYCQAWSTSTHSWVFGGGTKLTVL
notes: as for B4
Regarding B14, the EC50 in test [2] lay in the range of 1 to 20 nM.

B15: C-024 (IgG1 format) (antibody, V domains shown)
VH: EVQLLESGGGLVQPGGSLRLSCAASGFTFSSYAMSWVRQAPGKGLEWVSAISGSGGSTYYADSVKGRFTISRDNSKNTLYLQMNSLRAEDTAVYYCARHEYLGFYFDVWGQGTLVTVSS
VL: SYELTQPPSVSVSPGQTASITCSGDKLGDKYASWYQQKPGQSPVLVIYQDSKRPSGIPERFSGSNSGNTATLTISGTQAEDEADYYCLASHRLTLNYVFGGGTKLTVL
notes: as for B4
In turn, B15 registered an EC50 in test [2] of 1 to 20 nM.

B16: C-009 (IgG1 format) (antibody, V domains shown)
VH: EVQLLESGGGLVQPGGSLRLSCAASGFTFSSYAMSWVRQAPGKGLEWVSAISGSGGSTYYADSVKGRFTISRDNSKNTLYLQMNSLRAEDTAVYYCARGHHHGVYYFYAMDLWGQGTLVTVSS
VL: SYELTQPPSVSVSPGQTASITCSGDKLGDKYASWYQQKPGQSPVLVIYQDSKRPSGIPERFSGSNSGNTATLTISGTQAEDEADYYCQSYSGSSTLHVFGGGTKLTVL
notes: as for B4
Turning to B16, the EC50 in test [2] was in the range of 1 to 20 nM.

B17: C-015 (IgG1 format) (antibody, V domains shown)
VH: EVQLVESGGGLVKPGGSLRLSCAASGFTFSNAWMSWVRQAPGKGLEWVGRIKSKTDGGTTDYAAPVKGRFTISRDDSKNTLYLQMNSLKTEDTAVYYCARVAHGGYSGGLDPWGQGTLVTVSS
VL: SYELTQPPSVSVSPGQTASITCSGDKLGDKYASWYQQKPGQSPVLVIYQDSKRPSGIPERFSGSNSGNTATLTISGTQAEDEADYYCSSTGTAHTLAVFGGGTKLTVL
notes: as for B4
In the case of B17, the EC50 in test [2] was in the range of 20 to 100 nM.

B18: C-023 (IgG1 format) (antibody, V domains shown)
VH: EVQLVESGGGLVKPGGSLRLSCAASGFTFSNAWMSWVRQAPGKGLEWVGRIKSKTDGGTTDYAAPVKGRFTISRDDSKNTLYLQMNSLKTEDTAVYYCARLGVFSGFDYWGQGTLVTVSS
VL: SYELTQPPSVSVSPGQTASITCSGDKLGDKYASWYQQKPGQSPVLVIYQDSKRPSGIPERFSGSNSGNTATLTISGTQAEDEADYYCHTWTHHSLAVVFGGGTKLTVL
notes: as for B4
As to B18, in test [2], the EC50 was less than 1 nM.

B19: C-008 (IgG1 format) (antibody, V domains shown)
VH: EVQLLESGGGLVQPGGSLRLSCAASGFTFSSYAMSWVRQAPGKGLEWVSAISGSGGSTYYADSVKGRFTISRDNSKNTLYLQMNSLRAEDTAVYYCTTDNGHNRDWGQGTLVTVSS
VL: ASVLTQPPSVSAAPGQKVTISCSGSSSNIGNNYVSWYQQLPGTAPKLLIYDNNKRPSGIPDRFSGSKSGTSATLGITGLQAEDEADYYCGTWTRSSGVFGGGTKLTVL
notes: as for B4
Turning to B19, the EC50 in test [2] is less than 1 nM.

B20: A-033 (IgG1 format) (antibody, V domains shown)
VH: QVQLVQSGAEVKKPGASVKVSCKASGYTFTSYGISWVRQAPGQGLEWMGWISAYNGNTNYAQKLQGRVTMTTDTSTSTAYMELRSLRSDDTAVYYCARDHSIVGATTFDYWGQGTLVTVSS
VL: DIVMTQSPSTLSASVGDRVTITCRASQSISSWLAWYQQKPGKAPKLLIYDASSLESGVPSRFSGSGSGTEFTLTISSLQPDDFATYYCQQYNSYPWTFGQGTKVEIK
notes: human IgG1 format
B20 yielded an EC50 in test [1] of 0.02 to 0.05 nM.

B21: A-023 (IgG1 format) (antibody, V domains shown)
VH: QVQLVQSGAEVKKPGSSVKVSCKASGGTFSSYAISWVRQAPGQGLEWMGGIIPIFGTANYAQKFQGRVTITADESTSTAYMELSSLRSEDTAVYYCARPKYSSGWFYYYGMDVWGQGTTVTVSS
VL: QSVLTQPPSVSAAPGQKVTISCSGSSSNIGNNYVSWYQQLPGTAPKLLIYDNNKRPSGIPDRFSGSKSGTSATLGITGLQTGDEADYYCGTWDSSLSVVFGGGTKLTVL
notes: human IgG1 format
B21 gave an EC50 in test [1] of 0.05 to 1 nM.

B22: A-035 (scFv format) (scFv, V domains shown)
VH: QVQLVQSGAEVKKPGASVKVSCKASGYTFTGYYMHWVRQAPGQGLEWMGWINPNSGNTGYAQKFQGRVTMTRNTSISTAYMELSSLRSEDTAVYYCARGRLERGYWYFDLWGRGTLVTVSS
VL: NFMLTQPHSVSESPGRTVTISCTRSSGSITSNYVQWYQQRPGSAPTILIYEDKERPSEVPDRFSGSIDISSNSASLTISGLKTEDEADYYCQSYGGTSQGVLFGGGTKVTVL
notes: scFv
With B22, in the test with Streptavidin, the binding result is given as “no binding (tested: <0.025 or <0.05 RFU)”.

B23: A-004 (scFv format) (scFv, V domains shown)
VH: EVQLVESGGGLVKPGGSLRLSCAASGFTFSSYSMNWVRQAPGKGLEWVSSISSSSSYIYYADSVKGRFTISRDNAKNSLYLQMNSLRAEDTAVYYCARGQLLWFGESALIDAFDIWGQGTMVTVSS
VL: EIVLTQSPSSLSASVGDRVTITCRASQSISSYLNWYQLKPGKAPKLLIYAASILQSGVPSRFSGSGSGTDFTLTISSLQPEDFAAYYCQQSYSTPRTFGQGTKLEIK
notes: scFv
In the case of B23, the binding result in the test with Streptavidin is recorded as “no binding (tested: <0.025 or <0.05 RFU)”.

B24: A-008 (IgG1 format) (antibody, V domains shown)
VH: QLQLQESGPGLVKPSETLSLTCTVSGGSISSSGYYWGWIRQPPGKGLEWIGSIYYSGSTYYNPSLKSRVTISVDTSKNQFSLKLSSVTAADTAVYYCARHRVRFGEFDAFDIWGQGTMVTVSS
VL: QAVLTQPPSVSGAPGERVTLSCTGTSSNVGADFDVHWYQQFPGTAPRLLIFGSDNRPSGVPDRFSGSKSGTSASLAITGLQVEDEADYYCQAYDVRLSGWVFGGGTKLTVL
notes: human IgG1 format
In the case of B24, the EC50 in test [1] lay in the range of 0.02 to 0.05 nM.
